Measured values published in article PMC7467691, “Meiotic chromosome synapsis depends on multivalent SYCE1-SIX6OS1 interactions that are disrupted in cases of human infertility” (Science Advances, 2020).

T1: SIX6OS1N (human SIX6OS1 amino acids 1 to 67) (human, UniProt Q8N1H7 1-67)
T1 construct: Protein SIX6OS1, human, amino acids 1 to 67; also called SIX6OS1 1–67; source: E. coli BL21(DE3), co-expressed with SYCE1 constructs, purified as complex (MBP removed by TEV); not shown: MBP, N-terminal, cleaved
T1 sequence (looked up): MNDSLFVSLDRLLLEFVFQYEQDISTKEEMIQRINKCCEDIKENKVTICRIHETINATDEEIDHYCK


Key:
[1] = target: T1, SIX6OS1N (human SIX6OS1 amino acids 1 …); assay: SEC-MALS; 5 to 20 mg/ml in 20 mM tris (pH 8.0), 150 mM KCl, 2 mM DTT; Superdex 200 Increase 10/300 GL at 0.5 ml/min; conditions: both partners purified
[2] = target: the molecule itself; assay: as above

stoichiometry N [1] | Binder | stoichiometry N [2] | binding result [2]
1 | SYCE1POF (human SYCE1 amino acids 1 to 240, truncated product of the POF mutation c.613C>T, p.Gln241*) (domain or fragment, UniProt Q8N0S2 1-240, looked up, SYCE1, human, amino acids 1 to 240, relative to the canonical 351-amino acid isoform; product of the premature stop codon p.Gln241*; The purified material held about equal amounts of the full protein and a degradation product; source: also co-expressed with SIX6OS1N) MAGRSLTSKAEPTAGAVDRAEKAGGQDTSSQKIEDLMEMVQKLQKVGSLEPRVEVLINRINEVQQAKKKANKDLGEARTICEALQKELDSLHGEKVHLKEILSKKQETLRILRLHCQEKESEAHRKHTMLQECKERISALNLQIEEEKNKQRQLRLAFEEQLEDLMGQHKDLWDFHMPERLAKEICALDSSKEQLLKEEKLVKATLEDVKHQLCSLCGAEGPSTLDEGLFLRSQEAAATV | 2 | 
1 | full-length SYCE1 (human) (natural protein, UniProt Q8N0S2 1-351, looked up, SYCE1, human, full length; canonical 351-amino acid isoform; source: E. coli BL21(DE3), purified; co-expressed with SIX6OS1N for the complex) MAGRSLTSKAEPTAGAVDRAEKAGGQDTSSQKIEDLMEMVQKLQKVGSLEPRVEVLINRINEVQQAKKKANKDLGEARTICEALQKELDSLHGEKVHLKEILSKKQETLRILRLHCQEKESEAHRKHTMLQECKERISALNLQIEEEKNKQRQLRLAFEEQLEDLMGQHKDLWDFHMPERLAKEICALDSSKEQLLKEEKLVKATLEDVKHQLCSLCGAEGPSTLDEGLFLRSQEAAATVQLFQEEHRKAEELLAAAAQRHQQLQQKCQQQQQKRQRLKEELEKHGMQVPAQAQSTQEEEAGPGDVASPKPLKGERPGAAHQAGPDVLIGQEDTLHPDLSPRGFQEIKELF |  | 
1 | SYCE1core (human SYCE1 amino acids 25 to 179) (domain or fragment, UniProt Q8N0S2 25-179, looked up, Synaptonemal complex central element protein 1 (SYCE1), human, amino acids 25 to 179, numbers relative to the canonical 351-amino acid isoform; also called SYCE1 structural core; SYCE1 25–179; source: co-expressed with SIX6OS1N for the complex) GQDTSSQKIEDLMEMVQKLQKVGSLEPRVEVLINRINEVQQAKKKANKDLGEARTICEALQKELDSLHGEKVHLKEILSKKQETLRILRLHCQEKESEAHRKHTMLQECKERISALNLQIEEEKNKQRQLRLAFEEQLEDLMGQHKDLWDFHMPE |  | binds
